Assay [1] addresses YFP-Bcl-XL (human) (UniProt Q07817). Kind of assay: acceptor-photobleaching FRET on single mitochondria of living cells after PKC agonist.
In assay [2] the target is CFP-Bcl-XL (human) (UniProt Q07817). Kind of assay: FRET on mitochondria of bryostatin-1 treated Cos-1 cell, with the fluorophores as the legend of FIG. 5A names them.

Regarding “CFP-K-Ras12V (from UniProt P01116 1-186)”, the FRET efficiency in assay [1] is 17%.

Regarding “YFP-K-Ras12V (from UniProt P01116 1-186)”, the FRET efficiency in assay [2] turned out to be 17%.

These data come from US20060083742A1.
